T1: MuSK at the postsynaptic membrane of mouse neuromuscular junctions (levator auris longus muscle) (mouse, UniProt Q61006 22-868)
T1 construct: whole, on cells; Target in tissue immunostaining; also called mouse NMJs; MuSK at the NMJ
T1 sequence (looked up): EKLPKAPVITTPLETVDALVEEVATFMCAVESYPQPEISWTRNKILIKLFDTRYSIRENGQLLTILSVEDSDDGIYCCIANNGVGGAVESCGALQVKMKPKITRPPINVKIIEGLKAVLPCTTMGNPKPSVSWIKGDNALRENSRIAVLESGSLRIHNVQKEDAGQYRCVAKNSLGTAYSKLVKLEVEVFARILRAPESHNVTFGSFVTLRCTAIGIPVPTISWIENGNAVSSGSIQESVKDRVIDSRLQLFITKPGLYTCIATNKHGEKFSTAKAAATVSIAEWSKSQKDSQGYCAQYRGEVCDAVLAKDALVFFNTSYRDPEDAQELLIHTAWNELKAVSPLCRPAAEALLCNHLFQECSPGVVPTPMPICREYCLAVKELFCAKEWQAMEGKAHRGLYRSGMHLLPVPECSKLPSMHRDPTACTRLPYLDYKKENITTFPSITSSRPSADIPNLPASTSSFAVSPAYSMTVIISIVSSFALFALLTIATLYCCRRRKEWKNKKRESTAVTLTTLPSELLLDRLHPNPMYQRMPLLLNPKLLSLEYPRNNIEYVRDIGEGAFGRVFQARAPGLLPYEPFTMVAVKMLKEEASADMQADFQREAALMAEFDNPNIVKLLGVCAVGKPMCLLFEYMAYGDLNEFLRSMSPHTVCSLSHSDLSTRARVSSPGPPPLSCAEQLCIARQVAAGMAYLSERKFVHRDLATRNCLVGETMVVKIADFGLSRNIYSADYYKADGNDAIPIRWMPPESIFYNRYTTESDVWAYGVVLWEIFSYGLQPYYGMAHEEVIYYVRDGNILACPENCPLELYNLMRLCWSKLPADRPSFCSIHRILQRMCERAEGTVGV

B1: recombinant 13-3B5 IgG4 (antibody, V domains shown)
VH: QVQLVQSGAVVAKPGASVQVSCKTSGYTFTGQYLHWVRQAPGQGLEWIGWINPSSGVTKFAEKFEGRATMTRDTSITTAYIDLRSLRSDDTATYYCATLSLGVYYVGMVAWGQGTLVTVSS
VL: SYELTQPPSVSVSPGQTATITCSGDGLAQQHVYWFQQRPGQAPLLIIYKDIERPSGIPERFSGSSSGTTAMLTISGVQAEDEADYYCQSGDRTATSVLFGGGTKMTVL
notes: Variable regions cloned in an IgG4 backbone and expressed in HEK293-F cells; Bivalent and monospecific; also called homospecific 13-3B5 IgG4; 13-365
B2: recombinant 11-3F6 IgG4 (antibody, V domains shown)
VH: EVQLVESGGGLVKPGGSLRLSCAASGFTFSSYTMDWVRQAPGKGLEWVSSIGSNGDYIYYADSVRGRFTISRDNAKNSLYLQMNSLRPDDTADYYCARGQLAVAGTHFDYWGRGSLVTVSS
VL: DIQMTQSPSSLSASVGDRVTISCRASQKVNKYVNWYQQTPGKAPRLLIYAASTLQSGVPSRFSGSGSGANFTLTISGLQPEDFAIYFCQQSYSPLCTFGQGTKLEIK
notes: Variable regions cloned in an IgG4 backbone and expressed in HEK293-F cells; Bivalent and monospecific; also called homospecific 11-3F6 IgG4

Target: T1, MuSK at the postsynaptic membrane of …
Test: immunostaining of whole-mount mouse levator auris longus muscle
Description: FIG. 6—anti-MuSK/Anti-HIV-b12 exchanged heterospecific IgG4 antibodies were generated using methods detailed in Labrijn, 2014, Nature Protocols and Genmab, Labrijn, 2013, PNAS, which were adjusted to IgG4. These antibodies were tested for MuSK binding in mouse neuromuscular junction (NMJ) in ex vivo levator auris longus muscle. Equivalent anti-MuSK homospecific antibodies were also tested in parallel. The data confirms that both heterospecific MuSK IgG4 antibodies (13-3B5/HIV IgG4 and 11-3F6/HIV IgG4) and homospecific MuSK IgG4 antibodies (13-3B5 IgG4 and 11-3F6 IgG4) bind to MuSK at the NMJ.
To determine the binding characteristics of the recombinant and medium produced antibodies we performed an epitope mapping ELISA as described previously (Huijbers et al., 2016). Truncated versions of the MuSK proteins were immobilized on maxisorp plates and exposed to either antibodies from the single cell cultures 1:10 or to recombinant antibodies. Recombinant antibodies were also used to immunostain mouse levator auris longus muscle overnight at 4° C. at 1:100. AChRs in synaptic regions were labelled with AlexaFluor488 conjugated alpha-bungarotoxin (Life technologies) and bound recombinant antibodies were detected with AlexaFluor594 conjugated goat anti-human IgG (Life technologies). Muscles were imaged on a Leica SP8 confocal laser-scanning microscope and analyzed using Las X software.

| Binder | binding result |
| --- | --- |
| B1 | binds |
| B2 | binds |

Reference: patent publication US20240043562A1 (ACADEMISCH ZIEKENHUIS LEIDEN H O D N LUMC, published 2024)
